Drawing on patent US20260158151A1, this text covers cell proliferation measured by crystal violet staining, PANC-1 cells, 1.25 µg PPDP2-rrsp and total levels of intact RAS, western blot with pan-RAS antibody, PANC-1 cells treated with PPDP2-rrsp for 1 substance.

The assay concerns the target RAS (endogenous RAS of human pancreatic PANC-1 cells and PANC-1 xenograft tumours, detected with a pan-RAS antibody). Briefly: cell-based or functional assay.

Regarding “RRSP protein expressed in cells from rrsp mRNA delivered by PPDP2 nanoparticles (from UniProt A0A2S3R7M0 3596-4089) (enzyme)”, the cell proliferation measured by crystal violet staining, PANC-1 cells, 1.25 µg PPDP2-rrsp is > 60 % reduction and the total levels of intact RAS, western blot with pan-RAS antibody, PANC-1 cells treated with PPDP2-rrsp amounted to 40 % reduction.
